We go through 14 sequences from the DeepSol protein solubility set.

This data set in a line: soluble on expression in E. coli; label from the status in PepcDB or PDB records.
On to “MGSDKIHHHHHHMKRRELLVLGGLSTIAAGMGRQWFQPVSAQAITPLPASDRPLDLRFIAVADTGTGARGQYDVAAAMERYRRANPYKLAVLAGDNIYNNGEIEKIQAVFERPYAPLLKSGVKFRAVLGNHDIRTNNGNDQVRYPGFNMTGRYYQFQEGPVAFFALDTNGNADWNKQLTWLDRALQASNAPWKVVFGHHPIYSSGFYGVNRTLLGRLVPLFKRHGVQLYISGHDHSYERTQPIDGTTYLIVGAGAGLRPVGRSSWTAQSASTLSFAGLEVYGNELRIQTFDKDSRLIDQGQIFA”, for which the “soluble on expression in E. coli” value is “not soluble”.
“MKKLAFAVTVASGAAAVIANHEADASTQHTVKSGESLWSISQQYGVSVDEIKQSNDINNNMVFPGQVIEIGGSSSQESGSTSNNTSNGSSHTVQSGESLNIIANQYGVSVDEIIAANNLNGYLIHPNQTLTIPGTTGTGGSGGTATETPSSNTGGSTASDANLYDWGQCTWHVFNRRAETGQPISTYWWNADHWANNASADGYTVNNAPTAGSIMQNYEGPVGHVAYVERVNPDGSILISEMNYNTPPGTVDYRTIPASQASSYNYIHLEHHHHHH”: the “soluble on expression in E. coli” value is listed as “not soluble”.
Take “MGSDKIHHHHHHMSDKLSQEQIDALLSQMSEGKVVDESTEIGDFGRFHPYDFHKPEKFGAEHLESLKTIASAFTKKSMEFVSQRIRIPIHTEATLADQVSFASGYIETMPNDSYIFCIIDLGNPELGQIIIELDLAYIIYIHECLSGGNPKRKLSERRLLSVFEELTLKSILEKFCEALKDSFKSVHPISPEIVNIETNPALLRVTSPNDMMALVSVDIKSEFWISTMRIGVPFFSVEEIMNKLENVVEYTFDKRRNFDAEVEQELHQVEKEARIRVGEIKTTWKELNMLEVGDVLLTETHIRDTLKGYVTEKWKFECYMGKSGNQKAVKFMRHTGRTEQER”: the “soluble on expression in E. coli” value was “not soluble”.
For the sequence “MAHHHHHHMREARERARIAEAEADSAMEAADRAILEELLRKDEEERRAAAEREAAARRAAEERAAAERLKAEDEARQAAEAARQRALEEERQRQRESAKQAAKSQLHDEPSTDVATSETVQISVRCPSGKHYDRRFLRSDLVDQLTFFVLTLDEVADATDASTVRFVTGFPPAPLVWREGETRFGDVKSLCPRAVVLLRRL”, the “soluble on expression in E. coli” value was “not soluble”.
With “MASSYSASAEPARVRALVYGHHGDPAKVVELKNLELAAVRGSDVRVKMLAAPINPSDINMIQGNYGLLPELPAVGGNEGVAQVVAVGSNVTGLKPGDWVIPANAGLGTWRTEAVFSEEALIQVPSDIPLQSAATLGVNPCTAYRMLMDFEQLQPGDSVIQNASNSGVGQAVIQIAAALGLRTINVVRDRPDIQKLSDRLKSLGAEHVITEEELRRPEMKNFFKDMPQPRLALNCVGGKSSTELLRQLARGGTMVTYGGMAKQPVVASVSLLIFKDLKLRGFWLSQWKKDHSPDQFKELILTLCDLIRRGQLTAPACSQVPLQDYQSALEASMKPFISSKQILTM” the entry was “soluble”.
With “MGSDKIHHHHHHMSDVYDYLKESLPGDHSRQATAEAVLQARVAKGFAPAKVLDFGCGDGRSIDLFRRMLPQVDWTGVDIEASPEVASRRRQDGRFVTYDGYELPFPDRSFPLVYSHQVLEHVRKPELALREIARVLEPDGLFIGQTSQFEPYHSYSLWNFTVYGFKRIVEDAGMQLAELRPGIDGFTLMRRTYEGRPPEMSKYFSQESPINEEIEKAAGDKRTQVRNFRKLLFCGQFIFVVQLR” the entry was “not soluble”; with “MPPGKKGQASSLGQNKVHFHKYNLILLPPDTISSHSSEERGLLWKHRLSQARTSYSSHVRILVRIRKMWEKTPHMRIGNIFFKKREL”, “not soluble”; with “MSLSFLKHVQDCNTHDLSNFVRFVIEGRRVGWVRKALAQRLKAHGRVFDVTRDAVLLSASLRTPQSRTRAVADVVDRLADEGVVPAPRGELYRVNQSWGEPTLMLLDRAVVPTFGVRAYGVHLNGYVGAGADLHLWIGRRSPDKSVAPGKLDNMVAGGQPADLSLRQNLIKECAEEADLPEALARQAIPVGAITYCMESPAGIKPDTLFLYDLALPEDFRPHNTDGEMADFMLWPAAKVVEAVRTTEAFKFNVNLTVIDFAIRHGLIDPDNEGHHHHHH”, “not soluble”.
Turning to “MTEFELPPKYITAANDLRSDTFTTPTAEMMEAALEASIGDAVYGEDVDTVRLEQTVARMAGKEAGLFCVSGTLSNQIAIRTHLMQPPYSILCDYRAHVYTHEAAGLAILSQAMVVPVVPSNGDYLTLEDIKSHYVPDDGDIHGAPTRLISLENTLHGIVYPLEELVRIKAWCMENGLKLHCDGARIWNAAAQSGVPLKQYGEIFDSISICLSKSMGAPIGSVLVGNLKFVKKATHFRKQQGGGIRQSGMMARIALVNINNDWKSQLLYSHSLAHELAEYCEAKGIPLESPADTNFVFINLKAARMDPDVLVKKGLKYNVKLMGGRVSFHYQVTRDTLEKVKLAISEAFDYAKEHPFDCNGPTQIYRSESTEVDVDGNAIREIKTYKY”, the “soluble on expression in E. coli” value is listed as “soluble”.
With “MNFIIEPGSLADIDELERLYDELNDHLSATINYPGWIKGIYPVRENAAAGVDDNSLFVARCDGRIAGSVILDHQPEKAYENIVWKIDADYSYIFVVRTFVVHPSFLQMGVGHALMDFSLELALKSEMKSIRLDVYEKNLPAISLYEKCGFEYIDTVDLGLGHYGLDWFKLYEKVI” the entry was “not soluble”; with “MAKDIKFSEEARRSMLRGVDTLANAVKVTLGPKGRNVVLEKKFGSPLITNDGVTIAKEIELEDAFENMGAKLVAEVASKTNDVAGDGTTTATVLAQAMIREGLKNVTAGANPMGLRKGIEKAVVAAVEELKTISKPIEGKSSIAQVAAISAADEEVGQLIAEAMERVGNDGVITLEESKGFTTELDVVEGMQFDRGYASPYMITDSDKMEAVLDNPYILITDKKISNIQEILPVLEQVVQQGKPLLIIAEDVEGEALATLVVNKLRGTFNVVAVKAPGFGDRRKAMLEDIAILTGGEVITEELGRDLKSATVESLGRAGKVVVTKENTTVVEGVGSTEQIEARIGQIRAQLEETTSEFDREKLQERLAKLVGGVAVIKVGAATETELKERKLRIEDALNSTRAAVEEGIVAGGGTSLMNVYTKVASIVAEGDEATGINIVLRALEEPVRQIAINAGLEGSVVVERLKGEKVGVGFNAATGEWVNMLETGIVDPAKVTRSALQNAASVAAMFLTTEAVVADKPEPNAPAMPDMGGMGMGGMGGMM”, “not soluble”; with “MTVTFYSYPKCGTCQKAKKWFEANDVAYEMIHIVENPPSKEDLRNLHEKSELPLKKFFNTSGMRYRELGLKDKLKDASEDEMYELLASDGMLIKRPIVTDGTNVTLGFNEEQFESVWKKYQ”, “not soluble”.
In the case of “MGSSHHHHHHSSGLVPRGSHMATADPYDALRRRWLGITLGTGYDPAAEPYASRLAETGERAREHRATMAPTPTSLWPGHPFDPPAGITFAYGRLWTMTEAYVQEGTGATGDPALLADILRGLDHLSATVYHPATTRYGNWWEWQIGSPRLLMDITAALYDHLGADRVAAACAAVDHFVPDAMLGAYTGTSTGANRVDLCRSVALRGVLGRAPAKIALARDALSPVFPYVTKGDGLYADGSFVQHTWVAYSGTYGQVMLDGLGRLFTLLAGSEWEVTDPGRQLVLDSVEHAYAPLIHDGLVMDTVNGRAISRGYLKSDDLHVMRSDHFHGQQLIAAMAVLAGGASNAERERWHARIKGWIERDTVTPVLTAPQFPVADLTRLHAIADAPGEAAPEPVGHHLFAAMDRAVHRRPAFTAGLAMASDRIAHYECGNGENPRGWHTGAGMLTWWANGTRADQYTDWFWPTVDWYRLPGTTVSTKRLADRAGGEWGAPKPDVRWVGGATDGEYAAVGQHLKGLGSTLEARKSWFFLDDAVVCLGAGITCADGVPVETVVDNRNLGEGGTQALVRGRHWAHLEGHGGWIVPGGALRTLREDRTGAWSDINTTSTTERRTRRWQTLWLDHGTDPAGADYVYTVMPGASRAALARRAADRHWLTVLANDDRRQAVSVPSLGLTAANFWQAGTAGPLTTTAGASVLVRRRGRTATLRVSEPPRTGEALEIVWDHPVGAVLRADETVEILATGRRLHLRVTPGVVCTTHECEVTLS”, the “soluble on expression in E. coli” value was “soluble”.
Consider “MSLKKRYDLSYNFNVHEVPRAALEERFDPKSPTKRSIAIVFEEIKNWISDIPYVISLSYTDAQDKSKKIMNVTTDSLTKVLQADLPGSYNLEYIESKFCPGEIVGKSNVLVTMPVAPTMEVKSFPILDQCVGQVGLNFELSFTGAPPYYYNTKIYKLENGERKLYDAKRYTSEGTRNRFSYSPPKEGNYEIVFDTVSNKLFTEPIKLEPVKEYTFKTSMRVKPSASLKLHHDLKLCLGDHSSVPVALKGQGPFTLTYDIIETFSSKRKTFEIKEIKTNEYVIKTPVFTTGGDYILSLVSIKDSTGCVVGLSQPDAKIQVRRDEGHHHHHH”, for which the “soluble on expression in E. coli” value is “soluble”.
